Measured values as given in paper PMC3319868.
Where two headings read alike, the source gives them in different places.

B1: mutated HRE (OL570/OL571) (dsDNA)
DNA 1: AGCTTGCCCTAGCTGCTGTCTCAGA
DNA 2: TCTGAGACAGCAGCTAGGGCAAGCT
B2: wild type HRE (OL568/OL569) (dsDNA)
DNA 1: AGCTTGCCCTACGTGCTGTCTCAGA
DNA 2: TCTGAGACAGCACGTAGGGCAAGCT

What was measured:
HIF-1α;ARNT (HIF-1β) [1] = target: T1, HIF-1α;ARNT (HIF-1β) (human;human?, UniProt Q16665;P27540 1-826;1-789, |); experiment: competition
HIF-1α;ARNT (HIF-1β) [2] = target: T1, HIF-1α;ARNT (HIF-1β); experiment: competition; remark: listed apart in the source

T1 sequence (Q16665 whole entry, chain 1 of 2): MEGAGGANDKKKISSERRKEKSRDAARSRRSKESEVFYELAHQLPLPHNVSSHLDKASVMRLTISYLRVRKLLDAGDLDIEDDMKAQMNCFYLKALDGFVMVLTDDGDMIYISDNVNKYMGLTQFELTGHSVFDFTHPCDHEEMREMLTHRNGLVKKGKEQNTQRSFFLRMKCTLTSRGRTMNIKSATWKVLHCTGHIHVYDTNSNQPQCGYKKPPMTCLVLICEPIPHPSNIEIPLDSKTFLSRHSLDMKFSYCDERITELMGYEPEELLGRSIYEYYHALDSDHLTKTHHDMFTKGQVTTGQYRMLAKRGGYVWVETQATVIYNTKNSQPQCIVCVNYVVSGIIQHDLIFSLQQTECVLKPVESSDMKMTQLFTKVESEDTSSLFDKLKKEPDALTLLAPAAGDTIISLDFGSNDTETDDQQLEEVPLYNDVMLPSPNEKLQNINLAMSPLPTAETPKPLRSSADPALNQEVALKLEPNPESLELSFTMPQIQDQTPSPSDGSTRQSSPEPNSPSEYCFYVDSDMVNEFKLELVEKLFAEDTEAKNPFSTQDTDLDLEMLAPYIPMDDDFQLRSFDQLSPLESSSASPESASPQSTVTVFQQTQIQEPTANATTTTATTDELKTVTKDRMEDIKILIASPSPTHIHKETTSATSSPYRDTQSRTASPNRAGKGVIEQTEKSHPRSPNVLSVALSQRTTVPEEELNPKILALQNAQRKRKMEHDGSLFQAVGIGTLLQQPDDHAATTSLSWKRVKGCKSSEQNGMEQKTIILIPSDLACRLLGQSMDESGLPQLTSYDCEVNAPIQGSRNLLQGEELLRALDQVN
T1 sequence (P27540 whole entry, chain 2 of 2): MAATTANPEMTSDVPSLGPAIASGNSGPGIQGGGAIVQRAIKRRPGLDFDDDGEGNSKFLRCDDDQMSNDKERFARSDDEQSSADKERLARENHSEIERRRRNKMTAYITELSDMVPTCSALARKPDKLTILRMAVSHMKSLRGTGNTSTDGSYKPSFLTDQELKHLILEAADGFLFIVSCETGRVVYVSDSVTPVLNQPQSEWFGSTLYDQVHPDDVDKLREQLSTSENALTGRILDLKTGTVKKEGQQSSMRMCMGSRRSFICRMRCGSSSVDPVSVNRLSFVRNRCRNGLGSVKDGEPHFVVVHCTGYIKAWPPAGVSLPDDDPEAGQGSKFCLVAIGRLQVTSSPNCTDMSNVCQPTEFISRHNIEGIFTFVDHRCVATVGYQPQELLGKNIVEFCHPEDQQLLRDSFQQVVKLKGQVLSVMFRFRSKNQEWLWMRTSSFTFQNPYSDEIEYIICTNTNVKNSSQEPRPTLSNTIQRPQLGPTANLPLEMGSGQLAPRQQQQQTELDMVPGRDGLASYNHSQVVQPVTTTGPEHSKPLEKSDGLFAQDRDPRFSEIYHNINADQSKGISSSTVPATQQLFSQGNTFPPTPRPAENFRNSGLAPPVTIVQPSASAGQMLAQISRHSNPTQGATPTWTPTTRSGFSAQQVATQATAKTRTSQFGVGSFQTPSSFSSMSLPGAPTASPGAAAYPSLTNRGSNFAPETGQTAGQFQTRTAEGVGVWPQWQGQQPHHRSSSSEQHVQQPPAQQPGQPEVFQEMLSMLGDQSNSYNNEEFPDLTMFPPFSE

Row | Binder | binding result (HIF-1α;ARNT (HIF-1β) [1]) | binding result (HIF-1α;ARNT (HIF-1β) [2])
1 | B1 | no binding | 
2 | B2 |  | binds
